# Data from the supplement of paper PMC12042874.
# ± gives the uncertainty stated by the source.
# Key:
# [1] = amyloid nucleation score (Sup35N fusion, yeast selection) (log enrichment); library NNK1; higher = more nucleation; inactive = no reads after selection
# Procedure, shortened: (§1)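 After 24 hours of induction with 100 μM copper sulfate, psi-negative yeast expressing peptides of 20 random codons fused to Sup35N were grown for 7 days at 30°C on medium lacking adenine and uracil. Input and output plasmid inserts were sequenced with Illumina, and sequences with under 100 input reads were discarded. Scores for nucleation are the DiMSum log enrichment of output over input reads, centred on the mode score of non-aggregating sequences.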
# [2] = amyloid nucleation score (Sup35N fusion, yeast selection) (log enrichment); library NNK2; higher = more nucleation; inactive = no reads after selection
# Procedure, shortened: as §1
# [3] = amyloid nucleation score (Sup35N fusion, yeast selection) (log enrichment); library NNK3; higher = more nucleation; inactive = no reads after selection
# Procedure, shortened: as §1
Substance,amyloid nucleation score [1],amyloid nucleation score [2],amyloid nucleation score [3]
DVGSNKGAIIGLMVGGVVIA,3.61 ± 0.19,2.4 ± 0.19,–
GVLLV,0.129 ± 0.93,–,inactive
YSYNYGWTVAEELYNRCIGA,0.266 ± 0.36,–,–
YSYSEGSLYQCSVSVV,0.601 ± 0.7,–,–
YTPMTTSWLLPSLEINI,-0.069 ± 0.71,–,–
YTTASDNHVWSWLEYWVRVI,0.368 ± 0.56,–,–
YTVPQSLSLLCSAYLILLDA,0.561 ± 0.43,–,–
YVIFCTPSFFIL,5.52 ± 0.068,–,–
YVLLGFNYKTFYMSVGLDRE,-0.005 ± 0.52,–,–
YVNRVPLLEVLCP,-0.118 ± 1,–,–
YVTFGWIYTSLVPYRLEVIL,0.243 ± 0.42,–,–
YVTIIDKIYIWLDVVNRDLP,2.55 ± 0.29,–,–
YVWDAHIINVYLS,6.51 ± 0.081,–,–
YVWLMH,3.7 ± 0.11,–,–
YVYGYLNHRTSSGRMFFLFY,0.077 ± 0.38,–,–
YWAKCGWQAGKRYEV,0.803 ± 0.77,–,–
YWARRYLWAGFFI,-0.322 ± 1.1,–,–
YWCLRSLMV,inactive,–,–
YWHDVI,0.104 ± 1,–,–
YWILQV,0.299 ± 0.73,–,–
YYCLKPRGQSIGYGGNCLKA,0.134 ± 0.83,–,–
YYCYLLTNHPNTNGSVAFRL,0.934 ± 0.44,–,–
YYDYGEYIIKGVLPWIRGFY,0.513 ± 0.31,–,–
YYGQII,1.54 ± 0.38,–,–
YYISRVVVDGIRKYWGYLES,-0.866 ± 1.9,–,–
YYRGCHLYSHHPLRGLLGGV,inactive,–,–
YYSSHYVDIAHSKE,0.334 ± 0.32,–,–
YYSWQEDGFPFTNVSMFWS,-0.076 ± 0.37,–,–
YYWSYLALYSG,-0.57 ± 1.2,–,–
